This note sets out measurements from patent publication US20220378833A1 (Novartis, published 2022).

Assay [1] has as its target T1, His-Avidin-FKBP (wild-type FKBP) (biotinylated (residue not stated; construct carries an avi-tag)).
T1 construct: also called biotinylated wild-type FKBP; biotinylated FKBP
Kind of assay: AlphaLISA direct assay: 30 nM Flag-FRB and 30 nM biotinylated FKBP; the titrated species is everolimus (EC50 is an everolimus concentration). As for the experimental part: (§1) FRB mutations were also ranked in an alternative assay format. […] All dilutions were made in 1 × AlphaLISA Immunoassay buffer (PerkinElmer). Anti-Flag acceptor beads (PerkinElmer) were added at 10 ug/ml final concentration and incubated for one hour at room temperature. Streptavidin donor beads (PerkinElmer), were then added at a final concentration of 40 ug/ml and the plate was protected from light and incubated for 30 minutes at room temperature. The plate was then read on the PerkinElmer EnVision Multiplate reader equipped with the Alpha Module using excitation of 680 nm and a 570 nm Emission filter.
A general note: In Alpha technology, singlet oxygen from a donor bead excites a nearby acceptor bead.

The target in assay [2] is T1, His-Avidin-FKBP (wild-type FKBP). Description: AlphaLISA direct assay, Flag-FRB and biotinylated FKBP, everolimus titrated. As for the experimental part:
as §1

Changes are numbered by the printed parent chain. In names and notes the source's numbering stands.

T1 sequence (chain, as listed by the source limits assumed): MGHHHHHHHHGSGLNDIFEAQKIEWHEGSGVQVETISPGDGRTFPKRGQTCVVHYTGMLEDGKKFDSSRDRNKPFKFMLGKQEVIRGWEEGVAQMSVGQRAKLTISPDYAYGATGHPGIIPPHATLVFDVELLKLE

B1: His-FLAG-FRB (wild-type FRB) (other)
chain: MGHHHHHHHHGSDYKDDDDKGSASRILWHEMWHEGLEEASRLYFGERNVKGMFEVLEPLHAMMERGPQTLKETSFNQAYGRDLMEAQEWCRKYMKSGNVKDLTQAWDLYYHVFRRISKTS
notes: also called wild type Flag-FRB
As a reminder, the EC50 is the concentration needed to bring the measured effect to its halfway point. Read a low EC50 as a more potent agent. Regarding B1, the midpoint of the response in assay [1], the EC50, lay at 3.9 nM.

B2: His-FLAG-FRB T2098L (other)
chain: B1 chain with T103L
For the molecule B2, the “fold improvement over wild type FRB” value in assay [2] is 3 fold. This molecule gave an EC50 in assay [1] of 1.44 nM.

B3: His-FLAG-FRB E2032I (other)
chain: B1 chain with E37I
notes: also called E20321 (OCR form)
The molecule B3 had a 50% effective concentration (EC50) in assay [1] of 2.46 nM.

B4: His-FLAG-FRB E2032L (other)
chain: B1 chain with E37L
In assay [1], B4 showed an EC50 of 2.15 nM.
